Publication PMC3516504

What was measured:
[1] = biological target: Dansylated calmodulin, Ca2+-bound (Ca2+-dCaM) (UniProt P0DP23); test: other fluorescence titration; dansyl fluorescence (excitation 340 nm, intensity at 485 nm); ~80 µM Lf titrated into 1.4 µM dansylated CaM; 50 mM Tris pH 7.5, 1 mM CaCl2, 100 mM KCl (also run at 50 and 150 mM KCl); one site model, CaLigator; triplicate
[2] = biological target: Calmodulin, Ca2+-bound (Ca2+-CaM) (UniProt P0DP23); test: NMR titration; TROSY-HSQC of 2H/15N-labelled Ca2+-CaM titrated with unlabelled apo-Lf (titration data not shown); 20 mM Bis-Tris pH 6.8, 150 mM KCl, 4 mM CaCl2, 37 °C
[3] = biological target: Calmodulin, Ca2+-bound (Ca2+-CaM) (UniProt P0DP23); test: native gel or EMSA; non-denaturing PAGE band shift; increasing amounts of Lf incubated with a constant amount of Ca2+-CaM; running buffer 0.1 mM CaCl2, samples 0.5 mM CaCl2, no urea

Substance | Kd [1] [µM] | stoichiometry N [2] | stoichiometry N [3]
Human lactoferrin, iron-free (apo-Lf) (natural protein) | 3.5 | 1 | 1
Human lactoferrin, iron-saturated (Fe3+-Lf) (natural protein) | 2.1 | – | 1
